Values quoted from earlier work in PMC8316261.

Target: C5aR (Homo sapiens) (UniProt P21730)
Chain of UniProt P21730 (P21730 whole entry): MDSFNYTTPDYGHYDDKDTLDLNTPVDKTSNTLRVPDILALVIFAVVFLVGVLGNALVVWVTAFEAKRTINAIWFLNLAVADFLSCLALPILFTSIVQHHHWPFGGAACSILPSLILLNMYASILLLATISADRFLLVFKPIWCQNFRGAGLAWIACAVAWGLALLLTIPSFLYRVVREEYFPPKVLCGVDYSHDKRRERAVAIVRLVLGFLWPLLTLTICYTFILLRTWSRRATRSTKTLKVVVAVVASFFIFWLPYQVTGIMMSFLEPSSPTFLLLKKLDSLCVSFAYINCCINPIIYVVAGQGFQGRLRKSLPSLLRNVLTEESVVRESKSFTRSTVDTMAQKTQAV

- Kd: 1 nM
Substance: C5a C5a (from UniProt P01031)
